# Starred links: 1 amine or outer side, 2 acyl side, 3 side chain; linkers in the order of their positions; H or OH if unused. Positions of bridges follow the written chain, without caps; N, C: chain ends. Non-standard residues stand in square brackets, D forms with d. Primed or numbered codes have the meaning given here. *: point of attachment. B5(10) = 2-amino-2-(pent-4-en-1-yl)hept-6-enoic acid, bis(4-pentenyl)glycine, stitching residue bearing both staples, C=CCCCC(CCCC=C)(N[*:1])C(=O)[*:2]; PyrS2″ = (S)-3-amino-1-((pent-4-en-1-yloxy)carbonyl)pyrrolidine-3-carboxylic acid (stapling residue), C=CCCCOC(=O)N1CC[C@@](N[*:1])(C(=O)[*:2])C1; B5(4) = 2,2-bis(4-pentenyl)glycine = 2-amino-2-(pent-4-en-1-yl)hept-6-enoic acid (stitching residue), C=CCCCC(CCCC=C)(N[*:1])C(=O)[*:2]; B5(5) = 2,2-bis(4-pentenyl)glycine, 2-amino-2-(pent-4-en-1-yl)hept-6-enoic acid (stitching residue), C=CCCCC(CCCC=C)(N[*:1])C(=O)[*:2]; B5(33) = 2-amino-2-(pent-4-en-1-yl)hept-6-enoic acid (bis-pentenylglycine, two olefin side chains), C=CCCCC(CCCC=C)(N[*:1])C(=O)[*:2]; PyrS2 = (S)-3-amino-1-((pent-4-en-1-yloxy)carbonyl)pyrrolidine-3-carboxylic acid, C=CCCCOC(=O)N1CC[C@@](N[*:1])(C(=O)[*:2])C1; Phe(3-COOH) = N[C@@H](Cc1cccc(C(=O)O)c1)C(=O)O; Phe(2-CF3) = N[C@@H](Cc1ccccc1C(F)(F)F)C(=O)O; Phe(2-Cl) = N[C@@H](Cc1ccccc1Cl)C(=O)O; 2Nal = N[C@@H](Cc1ccc2ccccc2c1)C(=O)O; Bta = N[C@@H](Cc1csc2ccccc12)C(=O)O; Lys(iPr) = CC(C)NCCCC[C@H](N)C(=O)O; αAllylPro = C=CC[C@@]1(C(=O)O)CCCN1; tBuAla = CC(C)(C)C[C@H](N)C(=O)O; Cha = N[C@@H](CC1CCCCC1)C(=O)O; S8 = C=CCCCCCC[C@](C)(N)C(=O)O; Propanoyl(3-OMe) = COCCC(=O)*; Ms = CS(=O)(=O)*
# Target: T1, B-cat-Halo (beta-catenin HaloTag fusion expressed in HEK293 cells) (Homo sapiens (Human), UniProt P35222 1-781)
# T1 sequence: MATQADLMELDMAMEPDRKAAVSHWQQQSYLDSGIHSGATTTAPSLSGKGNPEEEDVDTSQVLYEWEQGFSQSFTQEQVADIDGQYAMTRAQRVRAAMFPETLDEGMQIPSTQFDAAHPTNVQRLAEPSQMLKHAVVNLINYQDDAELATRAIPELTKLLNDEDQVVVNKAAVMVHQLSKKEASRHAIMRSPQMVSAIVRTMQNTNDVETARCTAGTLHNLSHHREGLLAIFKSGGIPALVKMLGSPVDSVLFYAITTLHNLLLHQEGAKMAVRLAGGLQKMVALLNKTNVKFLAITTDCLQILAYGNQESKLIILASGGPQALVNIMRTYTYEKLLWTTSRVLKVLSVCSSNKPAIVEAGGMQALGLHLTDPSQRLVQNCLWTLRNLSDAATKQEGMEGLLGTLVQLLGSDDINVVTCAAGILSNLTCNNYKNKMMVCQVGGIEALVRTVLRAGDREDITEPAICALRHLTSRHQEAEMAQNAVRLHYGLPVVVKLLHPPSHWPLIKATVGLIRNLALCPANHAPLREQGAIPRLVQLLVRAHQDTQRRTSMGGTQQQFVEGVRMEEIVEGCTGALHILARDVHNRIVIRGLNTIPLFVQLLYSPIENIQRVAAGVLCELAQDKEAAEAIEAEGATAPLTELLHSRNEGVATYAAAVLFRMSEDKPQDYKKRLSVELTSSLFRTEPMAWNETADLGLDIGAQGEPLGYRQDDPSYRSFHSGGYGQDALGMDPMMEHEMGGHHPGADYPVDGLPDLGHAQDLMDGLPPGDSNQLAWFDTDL
# Assay: cell-based or functional assay
row,Binder,NanoBRET Abs IC50 [µM]
1,"Ac-[αAllylPro]D[tBuAla][B5(4)]D[Phe(3-COOH)]QAFL[PyrS2″][Phe(2-CF3)][2Nal]A-NH2 (staple 1-4, 4-11) [I-2461]",25.4
2,"Ac-[αAllylPro]D[tBuAla][B5(4)]D[Phe(3-COOH)]AAFL[PyrS2″][Phe(2-CF3)][RbMe2NapA]Q-NH2 (staple 1-4, 4-11) [I-2462]",4.7
3,"Ac-[αAllylPro]D[tBuAla][B5(4)]D[Phe(3-COOH)]AAFL[PyrS2″][Phe(2-CF3)][SbMeBztA]Q-NH2 (staple 1-4, 4-11) [I-2456]",8.1
4,"Ac-[αAllylPro]D[tBuAla][B5(4)]D[Phe(3-COOH)]QAFL[PyrS2″][Phe(2-CF3)][SbMeBztA]A-NH2 (staple 1-4, 4-11) [I-2457]",20.8
5,"Ac-[αAllylPro]D[tBuAla][B5(4)]D[Phe(3-COOH)]QAFL[PyrS2″][Phe(2-CF3)][RbMeBztA]A-NH2 (staple 1-4, 4-11) [I-2459]",15.1
6,"Ac-[αAllylPro]N[Cha][B5(4)]DT[Lys(iPr)]AFL[PyrS2″]F[Bta]K-NH2 (staple 1-4, 4-11) [I-2450]",> 20

# Now from value to binder:
row,NanoBRET Abs IC50 [µM],Binder
1,12.8,"Ac-[αAllylPro]D[tBuAla][B5(4)]D[Phe(3-COOH)]AAFL[PyrS2″][Phe(2-CF3)][2Nal]Q-NH2 (staple 1-4, 4-11) [I-2460]"
2,5.9,"Ac-[αAllylPro]D[tBuAla][B5(4)]D[Phe(3-COOH)]AAFL[PyrS2″][Phe(2-CF3)][RbMeBztA]Q-NH2 (staple 1-4, 4-11) [I-2458]"

# Target: T2, beta-catenin (full-length, Uniprot ID P35222) (Homo sapiens (Human), UniProt P35222 2-781)
# T2 construct: The FP protocol says 'full-length beta-Catenin (Uniprot ID P35222)'; also called bCat; B-Catenin
# T2 sequence: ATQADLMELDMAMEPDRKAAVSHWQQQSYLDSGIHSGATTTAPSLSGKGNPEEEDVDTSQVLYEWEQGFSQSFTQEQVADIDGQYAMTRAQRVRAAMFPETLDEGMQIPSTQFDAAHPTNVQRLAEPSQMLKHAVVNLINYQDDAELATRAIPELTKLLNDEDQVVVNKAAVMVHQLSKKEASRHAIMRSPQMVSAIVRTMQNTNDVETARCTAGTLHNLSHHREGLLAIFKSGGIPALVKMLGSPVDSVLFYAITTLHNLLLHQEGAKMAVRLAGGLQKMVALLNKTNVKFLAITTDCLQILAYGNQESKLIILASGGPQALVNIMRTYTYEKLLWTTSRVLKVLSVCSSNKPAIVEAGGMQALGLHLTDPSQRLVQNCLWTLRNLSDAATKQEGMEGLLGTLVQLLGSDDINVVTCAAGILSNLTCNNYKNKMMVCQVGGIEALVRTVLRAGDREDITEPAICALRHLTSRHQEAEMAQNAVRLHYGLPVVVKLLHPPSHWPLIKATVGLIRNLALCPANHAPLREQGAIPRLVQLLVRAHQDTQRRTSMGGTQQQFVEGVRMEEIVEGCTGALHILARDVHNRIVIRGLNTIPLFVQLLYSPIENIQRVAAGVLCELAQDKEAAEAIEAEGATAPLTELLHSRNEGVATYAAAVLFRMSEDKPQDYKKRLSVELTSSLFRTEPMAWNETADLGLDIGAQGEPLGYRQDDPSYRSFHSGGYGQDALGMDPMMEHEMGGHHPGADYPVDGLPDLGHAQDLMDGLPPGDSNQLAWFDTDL
# Assay: fluorescence polarization competition vs 5FAM-TCF4(10-53) on full-length beta-catenin
# Description: The plate was incubated protected from light for 60 minutes at 20° C. prior to read. Reads were performed on a CLARIOstar plate reader (BMG Labtech) in duplicate, and data were fitted to a 1:1 binding model with hill slope using an in-house script. All provided concentrations are final concentrations.
row,Binder,IC50 [µM]
1,"Ac-[αAllylPro]DA[B5(4)]DEAAFV[S8]FWQ-NH2 (staple 1-4, 4-11, Stapled (stitched) peptide) [I-123: Ac-PL3-Asp-Ala-B5-Asp-Glu-Ala-Ala-Phe-Val-S8-Phe-Trp-Gln-NH2]",2.11
2,"Ac-[αAllylPro]DA[B5(33)]DNAAFV[S8]FWQ-NH2 (staple 1-4, 4-11, Stapled peptide) [I-125: Ac-PL3-Asp-Ala-B5-Asp-Asn-Ala-Ala-Phe-Val-S8-Phe-Trp-Gln-NH2]",3.06
3,"XDAXDQAAFVXFWQ (not fully specified; N-terminal Ac; PL3 at 1; B5 at 4; S8 at 11; C-terminal NH2; stapled by olefin metathesis (PL3-B5 and B5-S8), Stapled peptide) [I-127: Ac-PL3-Asp-Ala-B5-Asp-Gln-Ala-Ala-Phe-Val-S8-Phe-Trp-Gln-NH2]",4.84

# Target: T3, B-cat-Halo (UniProt P35222 1-781)
# T3 sequence (looked up): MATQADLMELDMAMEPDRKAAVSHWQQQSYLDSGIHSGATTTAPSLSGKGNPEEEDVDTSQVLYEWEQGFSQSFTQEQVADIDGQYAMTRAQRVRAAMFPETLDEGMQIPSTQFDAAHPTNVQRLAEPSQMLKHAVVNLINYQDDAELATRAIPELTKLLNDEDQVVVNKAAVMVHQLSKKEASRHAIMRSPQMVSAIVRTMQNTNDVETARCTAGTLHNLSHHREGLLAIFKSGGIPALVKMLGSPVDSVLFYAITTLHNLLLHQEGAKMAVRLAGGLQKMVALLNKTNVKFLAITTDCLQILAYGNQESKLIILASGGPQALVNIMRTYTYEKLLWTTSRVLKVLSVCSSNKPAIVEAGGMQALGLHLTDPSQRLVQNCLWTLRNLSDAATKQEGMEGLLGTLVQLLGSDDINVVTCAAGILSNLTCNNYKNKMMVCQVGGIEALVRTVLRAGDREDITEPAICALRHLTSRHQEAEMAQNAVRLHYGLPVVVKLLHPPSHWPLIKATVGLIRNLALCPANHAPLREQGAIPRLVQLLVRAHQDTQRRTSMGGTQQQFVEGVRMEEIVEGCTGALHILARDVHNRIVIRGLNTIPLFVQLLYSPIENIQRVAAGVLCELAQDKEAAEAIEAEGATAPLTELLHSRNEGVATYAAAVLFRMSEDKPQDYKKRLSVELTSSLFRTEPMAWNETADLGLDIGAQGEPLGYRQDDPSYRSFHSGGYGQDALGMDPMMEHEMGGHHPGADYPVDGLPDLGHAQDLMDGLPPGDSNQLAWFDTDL
# Assay: cell-based or functional assay
row,Binder,NanoBRET Abs IC50 [µM]
1,"{Propanoyl(3-OMe)}-[αAllylPro]D[tBuAla][B5(33)]DDAAFN[PyrS2][Phe(2-Cl)][Bta][dT]-NH2 (staple 1-4, 4-11 (inferred); not fully specified; printed as MeOPr-PL3-Asp-Npg-B5-Asp-Asp-Ala-Ala-Phe-Asn-PyrS2-2C1F-BztA-dThr-NH2) [I-1259]",18.1
2,"Ac-[αAllylPro]D[tBuAla][B5(5)]DD[Lys(iPr)]AFL[PyrS2][Phe(2-Cl)][Bta]L-NH2 (staple 1-4, 4-11; not fully specified; printed as Ac-PL3-Asp-Npg-B5-Asp-Asp-iPrLys-Ala-Phe-Leu-PyrS2-2C1F-BztA-Leu-NH2) [I-1277]",> 20
3,"Ac-[αAllylPro]D[tBuAla][B5(5)]DDAAF[Lys(iPr)][PyrS2][Phe(2-Cl)][Bta]Q-NH2 (staple 1-4, 4-11; not fully specified; printed as Ac-PL3-Asp-Npg-B5-Asp-Asp-Ala-Ala-Phe-iPrLys-PyrS2-2C1F-BztA-Gln-NH2) [I-1278]",18
4,Ac-[αAllylPro]D[tBuAla][B5(5)]DD[Lys(iPr)]AFT[PyrS2″][Phe(2-Cl)][Bta]T-NH2 (staple 1-4; staple 4-11 (inferred); not fully specified; printed as Ac-PL3-Asp-Npg-B5-Asp-Asp-iPrLys-Ala-Phe-Thr-PyrS2-2C1F-BztA-Thr-NH2) [I-1273],> 20
5,"Ms-[αAllylPro]D[tBuAla][B5(33)]DDAAFN[PyrS2][Phe(2-Cl)][Bta][dT]-NH2 (staple 1-4, 4-11 (inferred); not fully specified; printed as MeSO2-PL3-Asp-Npg-B5-Asp-Asp-Ala-Ala-Phe-Asn-PyrS2-2C1F-BztA-dThr-NH2) [I-1258]",> 20
6,"Ac-[αAllylPro]D[tBuAla][B5(33)]DTAAFT[PyrS2]F[Bta]S-NH2 (staple 1-4, 4-11 (inferred); not fully specified; printed as Ac-PL3-Asp-Npg-B5-Asp-Thr-Ala-Ala-Phe-Thr-PyrS2-Phe-BztA-Ser-NH2) [I-1263]",20

# Continued, values first:
row,NanoBRET Abs IC50 [µM],Binder
1,24.7,"Ac-[αAllylPro]D[tBuAla][B5(10)]DDAAF[Lys(iPr)][PyrS2][Phe(2-Cl)][Bta]L-NH2 (staple 1-4, 4-11) [I-1280]"
2,27.8,Ac-[αAllylPro]D[tBuAla][B5(5)]DD[Lys(iPr)]AFL[PyrS2″][Phe(2-Cl)][Bta]Q-NH2 (staple 1-4; staple 4-11 (inferred); not fully specified; printed as Ac-PL3-Asp-Npg-B5-Asp-Asp-iPrLys-Ala-Phe-Leu-PyrS2-2C1F-BztA-Gln-NH2) [I-1275]
3,> 20,Ac-[αAllylPro]D[tBuAla][B5(5)]DD[Lys(iPr)]AFL[PyrS2″][Phe(2-Cl)][Bta]T-NH2 (staple 1-4; staple 4-11 (inferred); not fully specified; printed as Ac-PL3-Asp-Npg-B5-Asp-Asp-iPrLys-Ala-Phe-Leu-PyrS2-2C1F-BztA-Thr-NH2) [I-1276]
4,22.9,"Ac-[αAllylPro]D[tBuAla][B5(10)]DDAAF[Lys(iPr)][PyrS2][Phe(2-Cl)][Bta]T-NH2 (staple 1-4, 4-11) [I-1279]"
5,> 20,Ac-[αAllylPro]D[tBuAla][B5(5)]DD[Lys(iPr)]AFT[PyrS2″][Phe(2-Cl)][Bta]L-NH2 (staple 1-4; staple 4-11 (inferred); not fully specified; printed as Ac-PL3-Asp-Npg-B5-Asp-Asp-iPrLys-Ala-Phe-Thr-PyrS2-2C1F-BztA-Leu-NH2) [I-1274]

# — patent US20240116985A1 (published 2024)
